Target: SpyTag-VP2 (N-terminal SpyTag chimera of the major structural protein VP2 of parvovirus B19) (not stated | parvovirus B19)
Experiment: SEC + other: light scattering (MALS, Zetasizer Ultra); different amounts of SpyTag-VP2 (2.5-60 mL of 0.142 mg/mL) loaded on a 5-mL HisTrap HP column; peak run on Sephacryl 300-HR in 2 M GdnHCl buffer; fractions of 18-28 nm pooled, BCA

Substance “SpyTag-VP2 (N-terminal SpyTag chimera of the major structural protein VP2 of parvovirus B19)” has a percent of the loaded protein recovered as VLPs of 95%.
